How the values were obtained:
[1] = system: proteinase K; test: Proteinase K digestion of streptavidin and its muteins; type: biochemical; settings: independent of the presence or absence of biotin; 5 μM proteinase K, 15 min, 30° C.
Method: Purified streptavidin and its muteins (30 μM monomer) were treated with proteinase K (Invitrogen, 5 μM) for 15 min at 30° C. in 50 mM Tris-HCl containing 5 mM CaCl2, pH 8.0. The reaction was stopped by precipitation with trichloroacetic acid (Ellison, 1995). Boiled samples of precipitated proteins were resolved by reducing SDS-PAGE. The same analysis was performed with streptavidin samples treated with biotin (1 mM final concentration) prior to proteinase K digestion.

[2] = Dynamic light scattering (hydrodynamic radius, estimated molecular mass); type: physicochemical; settings: for M (kDa) (Dynamic light scattering): calculated from measured RH using a protein calibration curve
Method: (§1) Molecular mass of purified streptavidin and its muteins was estimated by both gel filtration and dynamic light scattering studies. Gel filtration was performed on the Bio-Rad biologic workstation equipped with a Bio-Prep SE 100/17 column that had been calibrated with molecular mass protein markers (Bio-Rad). Molecular mass was also estimated from the hydrodynamic radius of the mutein obtained using a DynaPro MS dynamic light scattering instrument (Protein Solutions, USA) that had been calibrated with lysozyme. Protein samples (2-3 mg/ml in PBS) were passed through a 0.02 μm filter (Whatman Anodisc 13) immediately prior to measurement. The size distribution profile was analyzed using the manufacturer's Dynamics V6 software.

[3] = Solubility of mutein; type: physicochemical; settings: at a concentration of 2 mg/ml
[4] = Apparent molecular mass by gel filtration (Bio-Prep SE 100/17); type: physicochemical
Excerpt: FIG. 6: Gel filtration profiles of streptavidin muteins. FIG. 6A. […] Bovine gamma-globulin (158 kDa), bovine serum albumin (66 kDa), ovalbumin (44 kDa), myoglobin (17 kDa) and vitamin B-12 (1.35 kDa) were used as molecular mass markers (closed circles) to calibrate the column. The logarithm of molecular mass was plotted versus Kav (Kav=(Ve−Vo)/(Vt−Vo); Ve, elution volume; Vo, void volume; Vt, bed volume). Positions of wild-type streptavidin (wt) and streptavidin muteins are represented by solid squares. FIG. 6B. Elution profile of M4 mutein (loaded at 2 mg/ml) on the gel filtration column.
as §1

[5] = Cross-linking reactions with sulfo-EGS; type: physicochemical; settings: 10-fold molar excess sulfo-EGS, 30 min, room temperature
Method: Cross-linking of streptavidin and its muteins was carried out using sulfo-EGS [ethylene glycolbis(sulfosuccinimidyl succinate)] (Pierce) as the cross-linker. A typical reaction mixture (20 μl) contained the purified mutein (0.2 5 mg/ml) and sulfo-EGS (10-fold molar excess over the protein) in PBS. After 30 min at room temperature, the reaction was quenched with Tris-HCl (30 mM, pH 7.5). Aliquots of the cross-linking reaction samples were boiled and examined by SDS-PAGE. Lysozyme (Sigma, 0.25 mg/ml) was included in the study to help establish the optimal reaction conditions.

[6] = Degree of monomerization of non-boiled samples in SDS-PAGE / Western blot; type: physicochemical
Method: FIG. 3: Western blot analysis of cell culture supernatants from B. subtilis strains producing streptavidin muteins carrying a single mutation. 15 μl of non-boiled sample of culture supernatant was loaded to each lane. Samples on the left set were collected from B. subtilis strains cultured in super-rich medium without additional supplement of biotin. Samples on the right set were collected from B. subtilis strains cultured in super-rich medium with additional supplementation of biotin (20 μM). The blot was probed with polyclonal antibodies against streptavidin and developed using 4-chloro-1-napthol (Bio-Rad) as the colour development agent. […] M, molecular weight markers; wt, wild type streptavidin.
FIG. 4: Analysis of culture supernatants from B. subtilis strains producing streptavidin muteins carrying different combinations of mutations. All these strains were cultivated in super-rich medium supplemented with biotin (20 μM). The 15 μl of non-boiled samples of culture supernatants were loaded. FIG. 4A. Coomassie blue stained SDS-polyacrylamide gel. […]
Streptavidin muteins carrying a single amino-acid change at the selected site may be produced in their soluble form by B. subtilis via secretion. […] Since biotin can strengthen subunit interaction, samples were analyzed in the presence or absence of biotin (Laitinen, 2001; Gonzalez, 1999). […]

[7] = system: Biotin-conjugated bovine serum albumin; test: Kinetic analysis by surface plasmon resonance BIAcoreX biosensor; type: binding; settings: interaction with biotin
Method: FIG. 8: Kinetic parameters for the interaction between M4 streptavidin mutein and biotin as monitored by BIAcore biosensor. A. On-rate (ka) determination. ka is derived from association analysis. kd is the slope of the plot of In(Ro/Rt) versus (t−to) where Ro is the response at an arbitrary starting time to; Rt is the response at time t.
The kinetic parameters (both on- and off-rates for interaction with biotin) of streptavidin muteins were determined in real time using the surface plasmon resonance based BIAcoreX biosensor. Biotin-conjugated bovine serum albumin immobilized on CM5 sensor chip was used to study the reversibility of biotin binding (Qureshi, 2001).

B1: M4: monomeric streptavidin quadruple mutant carrying T76R, V125R, V55T and L109T mutations (protein)
chain: MNIKKFAKQATVLTFTTALLAGGATQAFADPSKDSKAQVSAAEAGITGTWYNQLGSTFIVTAGADGALTGTYESAVGNAESRYTLTGRYDSAPATDGSGTALGWRVAWKNNYRNAHSATTWSGQYVGGAEARINTQWTLTSGTTEANAWKSTLRGHDTFTKVKPSAASIDAAKKAGVNNGNPLDAVQQ
modifications: Amino acid sequence for secretory production of streptavidin M4 in B. subtilis
notes: monomeric streptavidin quadruple mutant carrying T76R, V125R, V55T and L109T mutations
- Susceptibility to proteinase K digestion [1]: completely digested
- RH (nm) (Dynamic light scattering) ([2]; +biotin): 2.20 ± 0.14 nm
- M (kDa) (Dynamic light scattering) ([2]; +biotin): 21.5 kDa
- RH (nm) (Dynamic light scattering) ([2]; no biotin): 2.08 ± 0.31 nm
- M (kDa) (Dynamic light scattering) ([2]; no biotin): 18.1 kDa
- solubility [3]: excellent solubility
- M (kDa) (Gel filtration) ([4]; +biotin): 24.54 kDa
- M (kDa) (Gel filtration) ([4]; no biotin): 21.87 kDa
- Oligomeric state after cross-linking with sulfo-EGS (SDS-PAGE) [5]: migrated as monomers
- Monomer (percentage of streptavidin in monomeric state) ([6]; No additional biotin): 100%
- Monomer (percentage of streptavidin in monomeric state) ([6]; With additional biotin (20 μM)): 100%
- ka, on-rate [7]: 1.80 ± 0.04 × 10^4 M^−1s^−1
- kd, off-rate [7]: 3.39 ± 0.02 × 10^−3 s^−1
